How the values were obtained:
IGF-IIE [1] = biological target: T1, IGF-IIE (Homo sapiens, UniProt P01344); assay: Affinity measurements of IgGs by SPR (BIACORE), IGF-IIE; type: binding; settings: IgG
T1 construct: the construct comprising amino acids 1-104, which encompass the E domain

IGF-IIE [2] = biological target: T1, IGF-IIE; assay: IGF-IIE stimulated Ba/F3 cell proliferation, sFabs (MTS assay); type: cell-based; settings: 72 h
Experimental: (§1) Ba/F3 cells were cultured in complete medium (90% RPMI 1640+10% FBS+10 ng/ml IL-3+2 mM L-Alanyl-Glutamine+1×Pen/Strep). Cells at passage 6 to 15 were used for the high throughput cell proliferation assay. IGF-II (67aa), IGF-IIE (104aa) were at 10 μg/ml in PBS, kept at −70° C. IL-4 was purchased from R&D system, Cat#: 404-ML, and anti-IGF-II antibody was purchased from R&D system, Cat#: MAB292. 34 sFabs from batch 1 and batch 2 in a median scale purification, all in PBS, were screened.
(§2) IGF-II was prepared at concentration of 400 ng/ml; IGF-IIE at 800 ng/ml; sFab at 200 μg/ml in PBS. 25 μl of IGF-II or IGF-IIE was preincubated with 25 μl of sFab in 96-well plate, triplicate for each sFab, 30 min at room temperature in a total volume of 50 μl/well. […]
(§3) The MTS assay was performed as follows: • Add 20 μl of CellTiter 96 Aqueous One Solution Reagent to each well • Incubate at 37° C., 5% CO2 for additional 4 h. • Read plate for absorbance at a microplate spectrophotometer at wavelength 490 nm. […]
(§4) MTS Assay: • Add 20 μl of CellTiter 96 Aqueous One Solution Reagent to each well • Incubate at 37° C., 5% CO2 for additional 4 h. • Read plate for absorbance at a microplate spectrophotometer at wavelength 490 nm.

IGF-II = biological target: T2, IGF-II (Homo sapiens, UniProt P01344); assay: IGF-II stimulated Ba/F3 cell proliferation, sFabs (MTS assay); type: cell-based; settings: 72 h
T2 construct: IGF-II (amino acids 1-67)
T2 sequence (P01344 25-91): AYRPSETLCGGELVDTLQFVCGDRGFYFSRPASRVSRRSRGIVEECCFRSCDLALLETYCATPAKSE
Experimental: as §1, §2, §3, §4

T1 sequence (P01344 25-128): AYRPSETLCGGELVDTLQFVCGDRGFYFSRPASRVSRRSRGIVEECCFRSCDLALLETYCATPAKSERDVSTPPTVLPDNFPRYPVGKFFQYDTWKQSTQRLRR

B1: X0005-H01: germlined IgG counterpart of M0064-E04 in Table 6 (antibody, V domains shown)
VH: EVQLLESGGGLVQPGGSLRLSCAASGFTFSVYDMNWVRQAPGKGLEWVSSISSSGGGTLYADSVKGRFTISRDNSKNTLYLQMNSLRAEDTAVYYCARDSDTSSYYWYYDLWGRGTLVTVSS
VL: DIQMTQSPSSLSASVGDRVTITCQASHDISNYLNWYQQKPGKAPKLLIYAASRLQSGVPSRFSGSGSGTDFTLTISSLQPEDFATYYCQQSYSFPRTFGQGTRLEIK
Kd (IGF-IIE [1]): 0.26 nM

B2: M0068-E03: human anti-IGF-II/IGF-IIE Fab from phage display library (protein)
light: QDIQMTQSPSSLSASVGDRVTITCRASQSINTYLNWYQQKPGKAPKVLIHAASTLESGVPSRFSGSGSATEFTLTISSLQPEDFATFYCQQSYSVPFTFGPGTRLSSKRTVAAPSVFIFPPSDEQLKSGTASVVCLLNNFYPREAKVQWKVDNALQSGNSQESVTEQDSKDSTYSLSSTLTLSKADYEKHKVYACEVTHQGLSSPVTKSFNRGEC
heavy: EVQLLESGGGLVQPGGSLRLSCAASGFTFSEYVMAWVRQAPGKGLEWVSSIVSSGGYTKYADSVKGRFTISRDNSKNTLYLQMNSLRAEDTAVYYCAKDMTYSGDAFDVWGQGTMVTVSSASTKGPSVFPLAPSSKSTSGGTAALGCLVKDYFPEPVTVSWNSGALTSGVHTFPAVLQSSGLYSLSSVVTVPSSSLGTQTYICNVNHKPSNTKVDKKVEPKSCAAAHHHHHHGAAEQKLISEEDLNGAAEASSASNA
inhibitory effect on IGF-IIE stimulated Ba/F3 cell proliferation (screening) (IGF-IIE [2]; sFab 50 μg/ml (1 μM), MTS): significant inhibitory effect | inhibitory effect on IGF-IIE stimulated Ba/F3 cell proliferation (dose response, in words) (IGF-IIE [2]; sFab 50 μg/ml down to 0): significant inhibitory effect | inhibitory effect on IGF-II stimulated Ba/F3 cell proliferation (screening) (IGF-II; sFab 50 μg/ml (1 μM), MTS): significant inhibitory effect | inhibitory effect on IGF-II stimulated Ba/F3 cell proliferation (dose response, in words) (IGF-II; sFab 50 μg/ml down to 0): significant inhibitory effect
